{"source": "patent US20090214508A1", "target": "FLAG-tagged R2FasL (pFLAG-FlkFasL; FlkFasL with an N-terminal FLAG epitope tag) (mouse; human) (UniProt P35918)", "sequence (P35918 other isoform, or with tags, fused parts or gaps)": "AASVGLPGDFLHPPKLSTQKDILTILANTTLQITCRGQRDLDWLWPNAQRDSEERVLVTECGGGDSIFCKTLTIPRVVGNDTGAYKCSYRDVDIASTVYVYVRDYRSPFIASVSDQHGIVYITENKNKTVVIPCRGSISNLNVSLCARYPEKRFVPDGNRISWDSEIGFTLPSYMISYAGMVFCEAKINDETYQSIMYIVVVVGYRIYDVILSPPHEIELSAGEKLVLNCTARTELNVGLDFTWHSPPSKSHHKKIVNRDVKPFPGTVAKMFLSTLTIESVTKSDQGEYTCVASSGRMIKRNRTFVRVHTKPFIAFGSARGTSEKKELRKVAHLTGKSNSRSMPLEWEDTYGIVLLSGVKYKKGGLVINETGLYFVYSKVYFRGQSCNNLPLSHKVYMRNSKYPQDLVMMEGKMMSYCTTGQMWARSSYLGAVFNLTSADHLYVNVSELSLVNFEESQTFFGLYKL", "assay": "cell-based or functional assay", "data": [{"substance": "recombinant human VEGF-165 (from UniProt P15692 27-191) (ligand)", "values": [{"measurement": "ED50 (viability of Jurkat E6.1 cells, resazurin assay)", "result": "0.02 to 0.2", "unit": "nM"}]}]}
